Measured values: article PMC7655957

Legend:
[1] = target: WT_(ZIP+)/WT_(ZIP−), BICD2_(1–98) heterodimer with C-terminal ZIP+/ZIP− leucine zipper (mouse (cDNA, methods); called human in the results and in the legend of Fig. 1) (UniProt Q921C5); experiment: ITC; LIC1_(433–458) peptide titrated into ZIP+/ZIP− BICD2 heterodimers in the cell; 20 mM HEPES (pH 7.5), 100 mM NaCl, 0.5 mM TCEP; temperature given in the figure
[2] = target: Y46D_(ZIP+)/WT_(ZIP−), half-functional BICD2_(1–98) heterodimer with C-terminal ZIP+/ZIP− leucine zipper (mouse (cDNA, methods); called human in the results and in the legend of Fig. 1) (UniProt Q921C5); experiment: as above
HOOK1 (Homo sapiens) = HOOK1 (Homo sapiens) (UniProt Q9UJC3); details: cited from earlier work
Sequence of HOOK1 (Homo sapiens) (Q9UJC3 whole entry): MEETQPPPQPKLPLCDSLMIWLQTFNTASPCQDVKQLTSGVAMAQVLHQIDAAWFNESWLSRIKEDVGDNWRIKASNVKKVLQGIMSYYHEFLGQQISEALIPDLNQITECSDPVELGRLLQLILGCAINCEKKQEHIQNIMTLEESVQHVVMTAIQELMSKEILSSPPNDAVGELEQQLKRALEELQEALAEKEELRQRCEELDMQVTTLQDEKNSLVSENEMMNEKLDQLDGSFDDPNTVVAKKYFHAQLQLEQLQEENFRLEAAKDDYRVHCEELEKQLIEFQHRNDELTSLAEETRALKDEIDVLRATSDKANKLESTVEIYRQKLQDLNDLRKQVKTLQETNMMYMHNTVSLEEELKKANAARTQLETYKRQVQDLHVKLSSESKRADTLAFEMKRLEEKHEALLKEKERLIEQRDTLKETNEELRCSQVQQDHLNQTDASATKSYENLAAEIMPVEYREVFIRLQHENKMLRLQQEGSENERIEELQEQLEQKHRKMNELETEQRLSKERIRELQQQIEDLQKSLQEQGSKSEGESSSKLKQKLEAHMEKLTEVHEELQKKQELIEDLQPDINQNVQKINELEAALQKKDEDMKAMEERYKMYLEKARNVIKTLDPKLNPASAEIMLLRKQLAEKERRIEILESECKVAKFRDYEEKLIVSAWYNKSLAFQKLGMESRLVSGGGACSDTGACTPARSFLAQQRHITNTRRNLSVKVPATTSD

HOOK3 (Homo sapiens) = HOOK3 (Homo sapiens) (UniProt Q86VS8); details: cited from earlier work
Sequence of HOOK3 (Homo sapiens) (Q86VS8 whole entry): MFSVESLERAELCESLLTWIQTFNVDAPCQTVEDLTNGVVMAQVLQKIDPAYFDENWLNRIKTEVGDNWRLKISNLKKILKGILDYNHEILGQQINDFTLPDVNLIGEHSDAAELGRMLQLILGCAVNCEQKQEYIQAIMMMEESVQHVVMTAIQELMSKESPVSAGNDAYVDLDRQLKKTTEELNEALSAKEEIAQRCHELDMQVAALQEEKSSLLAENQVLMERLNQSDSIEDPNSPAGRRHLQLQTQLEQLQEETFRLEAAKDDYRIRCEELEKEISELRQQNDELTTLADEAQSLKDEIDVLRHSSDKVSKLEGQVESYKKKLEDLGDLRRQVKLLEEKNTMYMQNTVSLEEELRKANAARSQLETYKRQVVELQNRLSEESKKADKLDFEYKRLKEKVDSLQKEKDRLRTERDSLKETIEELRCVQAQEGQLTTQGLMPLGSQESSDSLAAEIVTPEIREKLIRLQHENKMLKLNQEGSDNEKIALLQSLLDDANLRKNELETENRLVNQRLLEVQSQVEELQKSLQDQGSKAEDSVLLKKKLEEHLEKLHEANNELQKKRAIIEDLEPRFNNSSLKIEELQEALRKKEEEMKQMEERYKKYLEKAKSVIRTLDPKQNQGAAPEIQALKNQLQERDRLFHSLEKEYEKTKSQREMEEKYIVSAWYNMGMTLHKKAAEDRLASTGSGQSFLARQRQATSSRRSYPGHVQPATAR

Sequence of LIC1_(433–458), amphipathic helix of the dynein light intermediate chain-1 (Q9Y6G9 433-458): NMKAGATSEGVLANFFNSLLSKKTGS
Sequence of LIC1 (Q9Y6G9 whole entry): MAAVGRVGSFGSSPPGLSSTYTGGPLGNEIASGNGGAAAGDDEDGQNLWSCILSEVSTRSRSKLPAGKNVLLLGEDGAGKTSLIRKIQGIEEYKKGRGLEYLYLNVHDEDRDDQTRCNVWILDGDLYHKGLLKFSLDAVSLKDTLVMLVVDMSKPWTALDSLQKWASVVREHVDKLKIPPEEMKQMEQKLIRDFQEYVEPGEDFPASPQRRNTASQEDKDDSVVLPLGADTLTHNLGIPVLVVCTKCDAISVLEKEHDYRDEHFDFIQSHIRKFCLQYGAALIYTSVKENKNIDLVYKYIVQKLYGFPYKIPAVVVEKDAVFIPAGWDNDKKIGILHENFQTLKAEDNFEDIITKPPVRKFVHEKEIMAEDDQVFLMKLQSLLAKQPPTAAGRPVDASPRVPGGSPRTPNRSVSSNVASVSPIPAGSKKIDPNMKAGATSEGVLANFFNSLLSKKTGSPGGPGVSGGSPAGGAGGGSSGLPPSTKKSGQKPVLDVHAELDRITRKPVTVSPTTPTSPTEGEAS

Substance	Kd [1] [µM]	stoichiometry N [1]	Kd [2] [µM]	stoichiometry N [2]	Kd (HOOK1 (Homo sapiens)) [µM]	Kd (HOOK3 (Homo sapiens)) [µM]
LIC1_(433–458), amphipathic helix of the dynein light intermediate chain-1 (from UniProt Q9Y6G9 433-458) (peptide)	6.8	2	6.2	1.1		
LIC1 (from UniProt Q9Y6G9)					15.7	6.3
